Consider ten molecules from patent US20130129746A1 (GlaxoSmithKline, published 2013).

Positions count from the first letter of the chain named.

For test [1], the target named is T1, Rat Serum Albumin (rat, UniProt P02770 25-608).
T1 construct: mature; purified protein on CM5 chips for BIAcore; also called RSA; rat SA
Description: BIAcore SPR (Albumin KD column).

Test [2] has as its target T1, Rat Serum Albumin. Description: BIAcore SPR, DOM1m-21-23 fusion against unfused AlbudAb.
The target in test [3] is T1, Rat Serum Albumin. In words: Albumin KD column of the PK table (repeats Table 6; row marked historical data); Albumin KD column of PK Table 10; historical data.
The target of test [4] is T1, Rat Serum Albumin. In words: BIAcore SPR. (In general: SPR reads the build-up and loss of mass on a sensor chip optically.)
Target sequence in this assay (P02770 25-608): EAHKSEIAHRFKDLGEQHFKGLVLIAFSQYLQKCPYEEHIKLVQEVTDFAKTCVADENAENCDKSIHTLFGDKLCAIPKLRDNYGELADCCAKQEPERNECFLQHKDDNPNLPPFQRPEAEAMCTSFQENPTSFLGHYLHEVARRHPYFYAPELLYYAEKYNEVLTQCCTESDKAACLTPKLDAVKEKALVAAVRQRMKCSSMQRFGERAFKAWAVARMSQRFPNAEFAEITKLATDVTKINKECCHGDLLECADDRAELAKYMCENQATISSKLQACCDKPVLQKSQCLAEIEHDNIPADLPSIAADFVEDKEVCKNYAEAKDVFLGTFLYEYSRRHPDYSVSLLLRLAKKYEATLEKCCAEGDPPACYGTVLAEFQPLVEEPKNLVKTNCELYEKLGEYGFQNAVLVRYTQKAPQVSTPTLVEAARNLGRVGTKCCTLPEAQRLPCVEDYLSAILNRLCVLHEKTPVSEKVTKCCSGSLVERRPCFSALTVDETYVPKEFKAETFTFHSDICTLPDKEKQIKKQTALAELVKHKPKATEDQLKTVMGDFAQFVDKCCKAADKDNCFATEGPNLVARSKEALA
Description: (§1) Binding to HSA, CSA, MSA and RSA by BIAcore was confirmed using purified protein at 3 concentrations 1 μM, 500 nM and 50 nM.
Test [5] addresses T2, Human Serum Albumin (human, UniProt P02768 25-609).
T2 construct: mature; purified protein on CM5 chips for BIAcore; also called HSA; human SA
In words: BIAcore SPR.
Description: as §1

Test [6] deals with T3, mouse serum albumin (mouse, UniProt P07724 25-608).
T3 construct: mature; purified protein on CM5 chips for BIAcore; also called MSA; mouse SA
Description: BIAcore SPR.
Description: as §1

For test [7], the target named is T4, Cynomolgus monkey Serum Albumin (Cynomolgus monkey, UniProt A2V9Z4 25-608).
T4 construct: mature; purified protein on CM5 chips for BIAcore; also called CSA; cyno SA
Description: BIAcore SPR.
Description: as §1

In test [8] the target is T4, Cynomolgus monkey Serum Albumin. In words: Albumin KD column of the PK table (repeats Table 6; row marked historical data).
Test [9] addresses T1, Rat Serum Albumin. In words: Albumin KD column of the PK table (repeats Table 6).
Target sequence in this assay (P02770 25-608): as above
The target in test [10] is T4, Cynomolgus monkey Serum Albumin. Described as above.
The target in test [11] is T3, mouse serum albumin. Described as above.
Test [12] has as its target T4, Cynomolgus monkey Serum Albumin. Description: Albumin KD column of the PK table (row marked historical data; differs from Table 6); historical data (*), not the Table 6 run.
For test [13], the target named is T1, Rat Serum Albumin. In words: BIAcore SPR, second independent experiment; second, independent SPR experiment (bracketed values).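 Note: purified domain antibodies run as analytes at 50 nM, 500 nM and 1 µM over HSA, CSA, MSA and RSA.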
Description: as §1
Test [14] has as its target T1, Rat Serum Albumin. Description: BIAcore SPR, second independent experiment.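 Note: purified domain antibodies run as analytes at 50 nM, 500 nM and 1 µM over HSA, CSA, MSA and RSA.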
Description: as §1
For test [15], the target named is T2, Human Serum Albumin. In words: BIAcore SPR, second independent experiment.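 Note: purified domain antibodies run as analytes at 50 nM, 500 nM and 1 µM over HSA, CSA, MSA and RSA.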
Description: as §1
In test [16] the target is T3, mouse serum albumin. In words: BIAcore SPR, second independent experiment.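 Note: purified domain antibodies run as analytes at 50 nM, 500 nM and 1 µM over HSA, CSA, MSA and RSA.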
Description: as §1
Test [17] has as its target T4, Cynomolgus monkey Serum Albumin. Description: BIAcore SPR, second independent experiment.
Description: as §1
The target of test [18] is T1, Rat Serum Albumin. In words: BIAcore SPR. This is another data set of the same source.
Target sequence in this assay (P02770 25-608): as above
Description: (§2) MSA antigen was obtained from Sigma (essentially fatty acid free, ˜99% (agarose gel electrophoresis), lyophilized powder Cat. No. A3559) and CSA was purified from Cynomolgus serum albumin using prometic blue resin (Amersham).
The target of test [19] is T2, Human Serum Albumin. Description: BIAcore SPR. The source holds these as a separate data set.
Description: as §2
Test [20] deals with T3, mouse serum albumin. Description: BIAcore SPR. This is another data set of the same source.
Description: as §2
Test [21] concerns the target T4, Cynomolgus monkey Serum Albumin. Description: BIAcore SPR. This is another data set of the same source.
Description: as §2

T4 sequence (A2V9Z4 25-608): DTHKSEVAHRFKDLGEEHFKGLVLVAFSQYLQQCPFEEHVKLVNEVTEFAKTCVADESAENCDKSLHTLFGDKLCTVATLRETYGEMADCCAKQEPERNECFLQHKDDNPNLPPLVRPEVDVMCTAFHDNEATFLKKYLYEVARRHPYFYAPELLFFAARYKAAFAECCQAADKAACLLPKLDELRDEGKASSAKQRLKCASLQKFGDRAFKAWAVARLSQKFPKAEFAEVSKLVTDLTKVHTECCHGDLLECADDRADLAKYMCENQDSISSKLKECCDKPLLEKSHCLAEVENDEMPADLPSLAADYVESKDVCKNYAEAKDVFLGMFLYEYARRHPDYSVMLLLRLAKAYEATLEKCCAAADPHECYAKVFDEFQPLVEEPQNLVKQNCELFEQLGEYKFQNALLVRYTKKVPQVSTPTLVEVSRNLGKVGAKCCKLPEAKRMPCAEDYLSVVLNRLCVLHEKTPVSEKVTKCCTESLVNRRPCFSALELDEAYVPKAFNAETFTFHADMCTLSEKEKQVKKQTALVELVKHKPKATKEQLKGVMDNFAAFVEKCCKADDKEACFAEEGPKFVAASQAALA
T3 sequence (P07724 25-608): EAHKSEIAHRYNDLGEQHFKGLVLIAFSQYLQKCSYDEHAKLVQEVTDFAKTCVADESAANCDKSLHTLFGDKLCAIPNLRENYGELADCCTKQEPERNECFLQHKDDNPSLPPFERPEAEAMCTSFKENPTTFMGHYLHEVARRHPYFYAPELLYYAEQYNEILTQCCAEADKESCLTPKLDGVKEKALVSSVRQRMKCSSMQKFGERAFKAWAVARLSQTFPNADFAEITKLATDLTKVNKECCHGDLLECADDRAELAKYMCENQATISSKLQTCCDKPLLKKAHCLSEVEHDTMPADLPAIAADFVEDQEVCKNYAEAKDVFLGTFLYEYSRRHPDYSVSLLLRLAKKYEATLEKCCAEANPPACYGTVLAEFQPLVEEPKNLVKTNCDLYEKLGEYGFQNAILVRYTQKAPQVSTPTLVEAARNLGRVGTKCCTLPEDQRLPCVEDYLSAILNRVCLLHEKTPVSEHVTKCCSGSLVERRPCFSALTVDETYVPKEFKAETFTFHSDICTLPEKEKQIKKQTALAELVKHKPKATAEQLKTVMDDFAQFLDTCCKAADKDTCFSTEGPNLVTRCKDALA

B1: DOM7h14-10/TVAAPSC fusion (NCE conjugate) (other)
chain: DIQMTQSPSSLSASVGDRVTITCRASQWIGSQLSWYQQKPGKAPKLLIMWRSSLQSGVPSRFSGSGSGTDFTLTISSLQPEDFATYYCAQGLRHPKTFGQGTKVEIKRTVAAPSC
modifications: C-terminal Cys of the TVAAPSC spacer conjugated by maleimide through a PEG 4 linker to the NCE (small molecule ADAMTS-4 inhibitor)
notes: AlbudAb-drug conjugate; also called DOM7h14-10 NCE-TVAAPSC
In general, Kd refers to the free concentration of one partner at which half of the binding sites on the other are occupied at equilibrium, for simple one-to-one binding. In the case of B1, the dissociation constant (Kd) with Rat Serum Albumin [1] came to 35 nM.

B2: DOM7h-11-12/DOM1m-21-23 fusion DMS number 5516 (other)
chain: EVQLLESGGGLVQPGGSLRLSCAASGFTFNRYSMGWLRQAPGKGLEWVSRIDSYGRGTYYEDPVKGRFSISRDNSKNTLYLQMNSLRAEDTAVYYCAKISQFGSNAFDYWGQGTQVTVSSASTSGPSDIQMTQSPSSLSASVGDRVTITCRASRPIGTMLSWYQQKPGKAPKLLILFGSRLQSGVPSRFSGSGSGTDFTLTISSLQPEDFATYYCAQAGTHPTTFGQGTKVEIKR
notes: also called DMS5516
Consider B2, for which the “fold decrease in affinity to RSA compared to the unfused AlbudAb” value in the test with Rat Serum Albumin [2] came out at 2 fold.

B3: DOM7h-11-15/DOM1m-21-23 fusion DMS number 5517 (other)
chain: B2 chain with F177A, G178F
notes: also called DMS5517
For B3, the “fold decrease in affinity to RSA compared to the unfused AlbudAb” value with Rat Serum Albumin [2] is 2 fold.

B4: DOM7h14-10/G4SC-NCE fusion (other)
chain: DIQMTQSPSSLSASVGDRVTITCRASQWIGSQLSWYQQKPGKAPKLLIMWRSSLQSGVPSRFSGSGSGTDFTLTISSLQPEDFATYYCAQGLRHPKTFGQGTKVEIKRGGGGSC
modifications: C-terminal Cys of the GGGGSC spacer conjugated by maleimide through a PEG 4 linker to the NCE (small molecule ADAMTS-4 inhibitor)
notes: AlbudAb-drug conjugate; also called DOM7h14-10 NCE-GGGGSC; DOM7h-14-10 GGGGSC
For B4, in the test with Rat Serum Albumin [1], the Kd was found to be 62 nM.

B5: DOM7h-14 (other)
VL: DIQMTQSPSSLSASVGDRVTITCRASQWIGSQLSWYQQKPGKAPKLLIMWRSSLQSGVPSRFSGSGSGTDFTLTISSLQPEDFATYYCAQGAALPRTFGQGTKVEIKR
notes: Vk dAb (AlbudAb)
Broadly, the koff is a measure of how fast the partners let go of each other. Broadly, the kon is a measure of how fast the partners come together. As for B5, the Kd amounted to 60 nM in the test with Rat Serum Albumin [3]; 60 nM with Rat Serum Albumin [4]; 33 nM in the test with Human Serum Albumin [5]; 12 nM with mouse serum albumin [6]; 66 nM in test [7]; 66 nM in test [8]. Further, the off-rate (koff) with Rat Serum Albumin [4] worked out at 0.209 s⁻¹; in the test with Human Serum Albumin [5], 0.0417 s⁻¹; in the test with mouse serum albumin [6], 0.0482 s⁻¹; in test [7] it was 0.0965 s⁻¹. Also, the on-rate constant (kon) with Rat Serum Albumin [4] was 4e+06 M⁻¹ s⁻¹; with Human Serum Albumin [5], 1.43e+06 M⁻¹ s⁻¹; with mouse serum albumin [6], 4.1e+06 M⁻¹ s⁻¹; in test [7] it was 1.5e+06 M⁻¹ s⁻¹.

B6: DOM7h-14-10 (other)
VL: B5 VL with A92L, A93R, L94H, R96K
notes: Vk dAb (AlbudAb)
In the case of B6, the dissociation constant (Kd) is 4 nM with Rat Serum Albumin [9]; 9 nM in [10]; 4 nM in the test with Rat Serum Albumin [4]; 12 nM in the test with Human Serum Albumin [5]; 30 nM with mouse serum albumin [6]; 9 nM in test [7]. The koff turned out to be 0.00964 s⁻¹ with Rat Serum Albumin [4], 0.0139 s⁻¹ with Human Serum Albumin [5], 0.0341 s⁻¹ with mouse serum albumin [6] and 0.0115 s⁻¹ in test [7]. Further, the kon worked out at 4.57e+06 M⁻¹ s⁻¹ in the test with Rat Serum Albumin [4], 1.5e+06 M⁻¹ s⁻¹ with Human Serum Albumin [5], 1.29e+06 M⁻¹ s⁻¹ with mouse serum albumin [6] and 1.6e+06 M⁻¹ s⁻¹ in test [7].

B7: DOM7h-11 (other)
VL: DIQMTQSPSSLSASVGDRVTITCRASRPIGTTLSWYQQKPGKAPKLLIWFGSRLQSGVPSRFSGSGSGTDFTLTISSLQPEDFATYYCAQAGTHPTTFGQGTKVEIKR
Regarding B7, the Kd with Rat Serum Albumin [9] amounted to 2100 nM; with mouse serum albumin [11], 5000 nM; in [12], 3300 nM; in the test with Rat Serum Albumin [4], 2100 nM; with mouse serum albumin [6] it was 5000 nM; in test [7], 1000 nM. Moreover, the dissociation rate constant (koff) came to 0.1 s⁻¹ in the test with Rat Serum Albumin [4], 0.9 s⁻¹ with mouse serum albumin [6] and 0.682 s⁻¹ in test [7]. The values for the kon (with Rat Serum Albumin [4]; in [7]) were 48000 M⁻¹ s⁻¹ and 800000 M⁻¹ s⁻¹, respectively.

B8: DOM7h-11-3 (other)
VL: B7 VL with W49L, F50W, G51N
Take B8: the dissociation rate constant (koff) was found to be 0.718 s⁻¹ with Rat Serum Albumin [13]; 0.0235 s⁻¹ with Human Serum Albumin [15]; 0.612 s⁻¹ with mouse serum albumin [16]; 0.15 s⁻¹ in test [17]; 0.016 s⁻¹ in the test with Human Serum Albumin [5]; 0.096 s⁻¹ in [7]. Besides, the dissociation constant (Kd) is 88000 nM in the test with Rat Serum Albumin [14]; 130 nM with Human Serum Albumin [15]; 36000 nM in the test with mouse serum albumin [16]; 200 nM in [17]; 10000 nM in the test with Rat Serum Albumin [4]; 32 nM with Human Serum Albumin [5]. In addition, the dissociation constant (Kd) with mouse serum albumin [6] is at least 10000 nM; in [7], 670 nM. Further, the association rate constant (kon) in the test with Rat Serum Albumin [14] stood at 8110 M⁻¹ s⁻¹; with Human Serum Albumin [15], 186000 M⁻¹ s⁻¹; with mouse serum albumin [16], 16700 M⁻¹ s⁻¹; in test [17] it was 726000 M⁻¹ s⁻¹; in the test with Human Serum Albumin [5], 650000 M⁻¹ s⁻¹; in test [7], 290000 M⁻¹ s⁻¹.

B9: DOM7h-11-15 (other)
VL: B7 VL with T32M, W49L, F50A, G51F
Turning to B9, the Kd is 20 nM with Rat Serum Albumin [9]; 10 nM in the test with mouse serum albumin [11]; 3 nM in [10]; 21 nM with Rat Serum Albumin [18]; 1.4 nM with Human Serum Albumin [19]; 10.3 nM in the test with mouse serum albumin [20]. In addition, the dissociation constant Kd in [21] amounted to 5.3 nM; with Rat Serum Albumin [4] it was 20 nM; with Human Serum Albumin [5], 1 nM; with mouse serum albumin [6] it was 10 nM; in test [7], 3 nM. The koff in the test with Rat Serum Albumin [4] is 0.021 s⁻¹; with Human Serum Albumin [5], 0.00184 s⁻¹; with mouse serum albumin [6] it was 0.0094 s⁻¹; in test [7] it was 0.00557 s⁻¹. Moreover, the kon with Rat Serum Albumin [4] was determined as 1.1e+06 M⁻¹ s⁻¹; with Human Serum Albumin [5], 2e+06 M⁻¹ s⁻¹; in the test with mouse serum albumin [6], 1.1e+06 M⁻¹ s⁻¹.

B10: DOM7h-11-12 (other)
VL: B7 VL with T32M, W49L
Take B10: the Kd with Rat Serum Albumin [9] is 200 nM; with mouse serum albumin [11], 130 nM; in the test with Rat Serum Albumin [4], 200 nM; with Human Serum Albumin [5], 350 nM; with mouse serum albumin [6], 130 nM; in [7], at least 6000 nM. Also, the off-rate (koff) was found to be 0.522 s⁻¹ with Rat Serum Albumin [4], 0.413 s⁻¹ in the test with Human Serum Albumin [5] and 0.189 s⁻¹ with mouse serum albumin [6]. Also, the association rate constant (kon) with Rat Serum Albumin [4] was found to be 2.76e+06 M⁻¹ s⁻¹; in the test with Human Serum Albumin [5] it was 1.26e+06 M⁻¹ s⁻¹; with mouse serum albumin [6] it was 1.53e+06 M⁻¹ s⁻¹.
